Ends that are not written are not given here. Me3 = trimethyllysine (Kme3)
Columns and labels:
Conditions in all cases: both partners purified
[1] = biological target: T1, TAF3 PHD domain (for ITC); assay: ITC; H3G4 (5 mM) titrated to JARID1A (330 μM), H3G4 (3 mM) titrated to TAF3 (200 μM); 19 injections; Microcal Auto-iTC200; one set of sites model
T1 chain: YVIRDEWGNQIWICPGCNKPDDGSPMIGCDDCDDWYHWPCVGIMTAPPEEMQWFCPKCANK

[2] = biological target: T1, TAF3 PHD domain (for ITC); assay: ITC; 350–600 μM H3K4me3 or H3C4me3 peptide titrated to 25–40 μM protein (JMJD2A–H3C4me3: 3 mM peptide to 200 μM JMJD2A); 19 injections; Microcal Auto-iTC200; one set of sites model; 5–7 repeats
BPTF PHD zinc finger = biological target: T2, BPTF PHD zinc finger; assay: as above
T2 chain: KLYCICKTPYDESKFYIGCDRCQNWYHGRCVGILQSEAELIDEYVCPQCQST

[3] = biological target: T3, JARID1A PHD3 domain (for ITC); assay: as above
T3 construct: JARID1A (KDM5A), PHD3 domain; cleavage of the tag is told only for JMJD2A, SGF29 and TAF3; also called PHD zinc finger of JARID1A; source: E. coli Rosetta BL21 DE3 pLysS, purified (Ni-NTA or glutathione sepharose beads, Superdex 75)

[4] = biological target: T4, SGF29 tandem tudor domain (for ITC); assay: as above
T4 construct: SGF29, tandem tudor domain; the crystallisation construct is residues 115-293 of human SGF29; source: E. coli Rosetta BL21 DE3 pLysS, purified (Ni-NTA, TEV protease, Superdex 75)
T4 sequence (Q96ES7 whole entry, the tested form may be a part): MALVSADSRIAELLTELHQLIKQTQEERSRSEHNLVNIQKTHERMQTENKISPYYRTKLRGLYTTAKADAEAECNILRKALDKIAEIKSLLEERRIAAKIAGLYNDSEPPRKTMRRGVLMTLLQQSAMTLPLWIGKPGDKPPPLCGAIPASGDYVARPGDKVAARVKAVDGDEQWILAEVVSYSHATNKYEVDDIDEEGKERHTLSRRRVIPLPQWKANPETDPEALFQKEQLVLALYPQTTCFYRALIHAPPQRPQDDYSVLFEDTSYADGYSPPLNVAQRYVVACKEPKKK

JMJD2A tudor domains = biological target: T5, JMJD2A tudor domains; assay: as above
T5 construct: JMJD2A (KDM4A), tudor domains; source: E. coli Rosetta BL21 DE3 pLysS, purified (Ni-NTA, TEV protease, Superdex 75)
T5 sequence (O75164 whole entry, species assumed, looked up): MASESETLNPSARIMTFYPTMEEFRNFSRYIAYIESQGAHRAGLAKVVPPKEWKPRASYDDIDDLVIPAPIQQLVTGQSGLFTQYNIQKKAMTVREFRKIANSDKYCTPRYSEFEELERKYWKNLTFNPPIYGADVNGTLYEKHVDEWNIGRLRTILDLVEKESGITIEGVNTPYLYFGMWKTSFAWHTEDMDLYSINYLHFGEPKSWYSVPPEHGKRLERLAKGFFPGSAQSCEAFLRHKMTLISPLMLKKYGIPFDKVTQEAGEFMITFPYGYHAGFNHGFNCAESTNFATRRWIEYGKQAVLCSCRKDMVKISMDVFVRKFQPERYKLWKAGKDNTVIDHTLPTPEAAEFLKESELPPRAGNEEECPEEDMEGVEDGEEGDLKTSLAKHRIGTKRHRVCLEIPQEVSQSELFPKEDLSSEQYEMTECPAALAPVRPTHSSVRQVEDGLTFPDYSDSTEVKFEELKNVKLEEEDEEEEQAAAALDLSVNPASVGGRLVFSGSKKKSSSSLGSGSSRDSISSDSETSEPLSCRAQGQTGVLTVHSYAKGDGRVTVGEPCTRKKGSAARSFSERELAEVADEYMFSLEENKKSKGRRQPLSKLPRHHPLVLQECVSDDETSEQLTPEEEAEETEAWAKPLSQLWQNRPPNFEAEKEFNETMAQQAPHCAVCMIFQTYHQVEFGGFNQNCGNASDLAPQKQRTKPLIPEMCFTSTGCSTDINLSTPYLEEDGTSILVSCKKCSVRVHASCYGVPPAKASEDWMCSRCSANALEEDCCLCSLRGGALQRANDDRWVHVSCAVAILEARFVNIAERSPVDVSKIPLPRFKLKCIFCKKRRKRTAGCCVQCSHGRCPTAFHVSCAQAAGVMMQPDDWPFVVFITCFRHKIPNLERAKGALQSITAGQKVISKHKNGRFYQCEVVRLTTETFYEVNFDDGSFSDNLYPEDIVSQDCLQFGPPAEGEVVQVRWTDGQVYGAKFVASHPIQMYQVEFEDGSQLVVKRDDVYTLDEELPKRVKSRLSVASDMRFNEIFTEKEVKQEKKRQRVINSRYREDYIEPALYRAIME

B1: 10-mer H3G4 histone peptide (peptide)
peptide: ARTGQTARKS-OH
notes: source: synthetic peptide (solid-phase synthesis, Fmoc chemistry, preparative HPLC)
- Kd [1]: 36000 nM
- dH [1]: -2.5 kcal/mol

B2: 10-mer H3K4me3 histone peptide (peptide)
peptide: ARTK(Me3)QTARKS-OH
notes: histone H3, residues 1-10, with Kme3 at the fourth position; Peptides appear as TFA salts; also called H3(1-10)K4me3; source: synthetic peptide (solid-phase synthesis, Fmoc chemistry, preparative HPLC)
- Kd [2]: 24 nM
- dH [2]: -10.9 ± 0.1 kcal/mol
- Kd (BPTF PHD zinc finger): 490 nM
- dH (BPTF PHD zinc finger): -13.1 ± 0.1 kcal/mol

B3: 10-mer H3C4me3 histone peptide (peptide)
chain: ARTXQTARKS
modifications: Cme3 (neutral carba analogue of trimethyllysine, tert-butyl in place of trimethylammonium) at position 4; carboxylic acid at the C terminus
- Kd [2]: 790 nM
- dH [2]: -5.2 ± 0.1 kcal/mol
- Kd (BPTF PHD zinc finger): 760 nM
- dH (BPTF PHD zinc finger): -10 ± 0.2 kcal/mol
- Kd [3]: 340 nM
- dH [3]: -7.4 ± 0.1 kcal/mol
- Kd [4]: 1400 nM
- dH [4]: -7.9 ± 0.1 kcal/mol
- Kd (JMJD2A tudor domains): 16000 nM
- dH (JMJD2A tudor domains): -8.1 ± 0.1 kcal/mol

— PMC4673829, “Chemical basis for the recognition of trimethyllysine by epigenetic reader proteins” (Nature Communications, 2015)
